B1: Pyruvate dehydrogenase E1 component subunit alpha, somatic form, mitochondrial (Homo sapiens), P08559-1 (parent)
chain: MRKMLAAVSRVLSGASQKPASRVLVASRNFANDATFEIKKCDLHRLEEGPPVTTVLTREDGLKYYRMMQTVRRMELKADQLYKQKIIRGFCHLCDGQEACCVGLEAGINPTDHLITAYRAHGFTFTRGLSVREILAELTGRKGGCAKGKGGSMHMYAKNFYGGNGIVGAQVPLGAGIALACKYNGKDEVCLTLYGDGAANQGQIFEAYNMAALWKLPCIFICENNRYGMGTSVERAAASTDYYKRGDFIPGLRVDGMDILCVREATRFAAAYCRSGKGPILMELQTYRYHGHSMSDPGVSYRTREEIQEVRSKSDPIMLLKDRMVNSNLASVEELKEIDVEVRKEIEDAAQFATADPEPPLEELGYHIYSSDPPFEVRGANQWIKFKSVS
partner: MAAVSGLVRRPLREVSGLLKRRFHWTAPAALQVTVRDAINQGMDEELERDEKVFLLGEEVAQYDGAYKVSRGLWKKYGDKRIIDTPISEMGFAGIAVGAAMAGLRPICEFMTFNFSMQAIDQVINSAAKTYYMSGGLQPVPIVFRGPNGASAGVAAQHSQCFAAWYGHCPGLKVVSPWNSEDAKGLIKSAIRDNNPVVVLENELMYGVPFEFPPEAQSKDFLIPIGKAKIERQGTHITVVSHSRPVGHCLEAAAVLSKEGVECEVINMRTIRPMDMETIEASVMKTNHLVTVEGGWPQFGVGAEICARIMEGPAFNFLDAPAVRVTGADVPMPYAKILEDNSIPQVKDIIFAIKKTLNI

Variants of: B1
Conditions: with PDHB

Variant	effect of a mutation on the interaction
S232A;S300A	with no effect
Y118F	with no effect
